“Also recorded” adds a separate entry of the source.
Experiments:
hGal3 peptide = assay: Gal3 peptide library ELISA (Example 25); assay type: binding, human; conditions: peptide array ELISA
Description: To identify the epitopes to which Gal3 antibodies with and without Gal3-TIM3 blocking activity bound, a library of 20 amino acid peptides representing portions of Gal3, summarized in Table 24.1, was produced and the ability to bind Gal3 antibodies was evaluated by ELISA.
At least 2 μg/ml of hGal3 peptide in 50 μl of PBS or 0.1 μg/ml of full-length human Gal3 protein (GenScript) and human Galectin-3 protein (Acro Biosystems, GA3-H5129) were diluted in PBS (Corning, 21-030-CM) to concentrations of at least 2 μg/ml or 0.1 μg/ml, respectively, and added to the wells of a 96-well ELISA plate (Thermo Fisher, 44-2404-21). After incubating the plate at 4° C. overnight, the plate was washed three times with PBST (PBS with 0.05% Tween 20 [VWR, 0777]). The plate was then blocked for an hour with 2% BSA (EMD Millipore, 126609) in PBST at room temperature with gentle rocking. Thereafter, the 2% BSA in PBST was discarded and human Galectin-3 hybridoma supernatants or antibodies were diluted in 2% BSA in PBST to concentrations of at least 0.1 μg/ml and added to the wells. The plate was incubated for an hour at room temperature with gentle rocking and then washed three times with PBST. Afterwards, Goat Anti-Mouse IgG-HRP (Jackson ImmunoResearch, 115-036-1461) or Goat Anti-Rat IgG HRP (abcam, ab205720) diluted in 2% BSA in PBST (1:4000) were added to the wells. The plate was incubated for 30 minutes to 1 hour at room temperature with gentle rocking and then washed three times with PB ST. TMB substrate (Thermo Scientific, 34029) was then added to each well. The reaction was stopped with 1M HCl (JT Baker, 5620-02) and read using a plate reader (Molecular Devices) at absorbance of 450 nm.

human Gal3 protein = assay: Epitope binding of IMT001, hGal3 peptide array dot blot and peptide ELISA; conditions: dot blot, 1 ug/ml antibody
Description: A peptide array containing 24 20 amino acid peptides overlapping by 10 amino acid and covering the whole human Gal3 protein sequence was synthesized (Genscript, Piscataway, N.J.) (FIG. 11A). 20 μg of each peptide was dot blotted onto a membrane. After blocking with 5% milk in PBS, the membrane was incubated with 1 ug/ml IMT001 antibody at 4C for overnight. After three times of washes, the membrane was incubated with 1:8000 diluted anti mIgG HRP antibody (Southern Biotech, Birmingham, Ala.) for one hour. After three times of washes, the membrane was incubated with Western ECL blotting substrates (Bio-Rad, Hercules, Calif.) and developed (FIG. 11B).
To further define binding epitope of IMT001 on the above peptide, 8 shorter peptides derived from it were synthesized (Genscript, Piscataway, N.J.) (FIG. 11C) and their binding by IMT001 was determined by ELISA (FIG. 11D). 96 well Elisa plate (Thermo Scientific) was coated with these peptides in PBS buffer and incubated at 4° C. for overnight. The plate was washed three times with TBST and then blocked with PBST buffer containing 2% BSA at room temperature for 1 h. IMT001 at 10 μg/mL was incubated in the coated Elisa plate at room temperature for 1 h. […] The optical density (OD) was read at 450 nm. The results were expressed as the average OD of duplicates±SD.

Galectin-3 = Galectin-3 (Homo sapiens, UniProt P17931); assay: SPR (BiacoreT200) binding affinity; conditions: 25° C., read-out: hGal-3 KD
Description: GAL3-binding antibodies were evaluated for their binding affinity by SPR. Kinetics experiments were performed on BiacoreT200 at 25° C. in high performance mode. Ligand proteins, purified antibodies were captured onto a CM5 chip coupled with anti-human Fc or anti-mouse Fc antibody, three antibodies at a time onto flow cell #2, 3, and 4, respectively, while flow cell #1 was used as reference. The analyte Galectin-3 in HBS-EP buffer was injected over all four flow cells at concentrations of 100, 50, 25, 12.5, 6.25, 3.125 and 0 nM at a flow rate of 30 μL/min. The complex was allowed to associate and dissociate for 240 and 300 seconds, respectively. The surfaces were regenerated with a 30 second injection of 10 mM Glycine pH 1.7 (flow rate 30 μL/min). The data were fit to a simple 1:1 interaction model using the global data analysis option available within BiacoreT200 Evaluation software V2.0. The affinity of Gal3 monoclonal antibodies was confirmed to be […] 30 nM for all antibodies studied (Table 24.1). Antibodies with affinity less than 2E-7 were selected for further characterization.

[1] = tested on: mouse unilateral ureteral obstruction (UUO) model of kidney fibrosis; assay: Mouse UUO model of kidney fibrosis (Example 32); assay type: in vivo; conditions: administered one day after UUO surgery
Source text: To further evaluate the ability of GAL3-targeted antibodies with the ability to block TIM3-GAL3 assembly to impact fibrosis, we evaluated the impact of humanized IMT001-4 and IMT006-1 in the mouse unilateral ureteral obstruction (UUO) model of kidney fibrosis. Briefly, 8-week-old C57BL/6J male mice were divided into sham, UUO with HuIgG4−, and UUO with HuIMT001-4, HuIMT006-1, and UUO with metformin-treatment. HuIgG4, HuIMT001-4 and HuIMT006-1 were each administered by intraperitoneal route at 10 mg/kg Q2Dx3 whereas metformin (500 mg/kg/day) was administered to mice dissolved in drinking water. In some settings therapeutic antibodies or metformin was administered 1 day before UUO, whereas in other experiments therapeutic antibodies or metformin was administered 1 day after UUO. After 7 days of UUO surgery, mice were sacrificed, left kidney was harvested and fixed with 4% paraformaldehyde for immunohistochemistry (IHC) and blood was collected in Heparin-EDTA tubes for blood biochemistry analysis. Levels of plasma mouse TIM-1/KIM-1/HAVCR were measured using a commercial ELISA kit (Catalog #MKM100; R&D Systems, Minneapolis, Minn.) according to the protocol provided by the manufacturer. Levels of plasma mouse Lipocalin-2/NGAL were measured using a commercial ELISA kit (Catalog #DY1857; R&D Systems, Minneapolis, Minn.) according to the protocol provided by the manufacturer. 5 um sections of fixed kidney specimens were produced and processed for picosirius red staining as described for liver specimens above.
To evaluate the robustness of TIM3-GAL3 blocking antibodies in reducing kidney fibrosis, the ability of mIMT001 to inhibit fibrosis when administered one day after UUO surgery was evaluated. Following UUO surgery and treatment with isotype or control antibodies, kidney specimens were harvested and stained by IHC for Collagen 1a1 (Col1a1), a marker of kidney fibrosis.

Galectin-3, sequence (P17931 whole entry): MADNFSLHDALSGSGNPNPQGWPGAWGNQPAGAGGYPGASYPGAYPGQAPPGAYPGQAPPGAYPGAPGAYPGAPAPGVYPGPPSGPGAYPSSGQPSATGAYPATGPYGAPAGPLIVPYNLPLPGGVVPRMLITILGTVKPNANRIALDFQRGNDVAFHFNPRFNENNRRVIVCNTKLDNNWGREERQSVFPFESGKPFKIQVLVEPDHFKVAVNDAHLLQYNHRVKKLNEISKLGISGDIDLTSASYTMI
Description for B16F10 cells: The animal experiments were conducted according to a protocol approved by the Molecular Medicine Research Institute Institutional Animal Care and Use Committee. C57BL/6 mice were placed in a facility accredited by the Association for Assessment and Accreditation of Laboratory Animal Care upon arrival. Thirty six of 7-week old female mice were randomly assigned into three groups (n=12). On day 0, B16F10 cells (2×10^5 in 0.1 mL PBS) were washed and resuspended in PBS before injection into the tail veins of mice using a syringe with a 27-ga needle. […] On day 21, the animals were humanely sacrificed and lung tissues were removed and fixed in a 10% buffered formaldehyde solution. The number of black metastatic colonies on one surface of the left lobes in the lungs were counted (FIG. 7B). Results were expressed as mean±SEM. The statistical analysis was performed in comparison with IgG control group using one-way ANOVA.

B1: IMT001: anti-Gal3 monoclonal antibody (Immutics); printed as mIMT001 (IMT001), murine (antibody, V domains shown)
VH: QIQLVQSGPELKKPGETVKISCKASGYTFTNYGMNWVKQAPGKGLKWMGWINTNTGEPTYVEEFKGRFAFSLETSASTAYLQINNLKNEDTATYFCAPYDNFFAYWGQGTLVTVSA
VL: DIVITQDELSNPVTSGESVSISCRSSKSLLYKDGKTYLNWFLQRPGQSPQLLIYLMSTHASGVSDRFSGSGSGTDFTLEISRVKAEDVGVYYCQQLVDYPLTFGAGTKLELK
Gal3 peptide bound (hGal3 peptide): peptide 6
epitope on hGal3, 20 amino acid peptide array (human Gal3 protein): Peptides 5 and 6; also recorded: peptide_5
reduction of tumor number (black metastatic colonies) (B16F10 cells; 10 mg/Kg i.p., day 21, vs isotype control): about 46%
anti-tumor effect, tumor number (B16F10 cells; 10 mg/Kg i.p., vs isotype control): significant reduction of tumor number
tumor burden as indicated by lung weight (B16F10 cells; vs isotype control): much less tumor burden
Kd (Galectin-3): 1.67 nM
Col1a1 staining, image quantification [1]: 9.17 intensity units
Col1a1 staining, qualitative [1]: reduced levels of Col1a1 staining
overall reduction in Col1a1 [1]: 48%

— US20220380473A1, “ANTI-GAL3 ANTIBODIES AND USES THEREOF” (TrueBinding, Inc., priority 2019, published 2022)
